Values joined by “and” are separate entries in the source; they are usually repeats but may differ in a detail not shown here. Equal entries are not always repeated.
Columns and labels:
Erbb4-null mice = assay: Survival of Erbb4-null mice under AngII treatment; assay type: in vivo, mouse; parameters: key to Survival probability in AngII-treated Erbb4-null mice: 0: Survived until end of experiment; 1: Died before the end of the experiment
From the text: Floxed Erbb4 mice (Erbb4^f/f; C57BL/6N; 129-Erbb4tm1Fej/Mmucd, MMRRC, #010439-UCD) were crossed with CAGGCre-ER^TM mice (Jackson Laboratory, 004682) containing the Tg(CAG-cre/Esr1*)5Amc transgene that expresses Cre recombinase under the control of a chicken beta actin promoter/enhancer coupled to the human cytomegalovirus immediate-early gene enhancer, resulting in expression of tamoxifen-inducible Cre-ERT in most cell types. To induce Cre recombinase-mediated deletion of Erbb4, eleven-week-old female and male iCAGGCre-ER^TM/Erbb4^f/f mice were intraperitoneally injected with tamoxifen (Merck, T5648; 10 mg/kg; in corn oil) daily for 5 consecutive days.
Statistical analysis was performed using GraphPad Prism version 10. Data are presented as the mean value of biological replicates (unless stated otherwise) ± SD. Data was checked for normality using the Shapiro–Wilk normality test. […]
Supplementary Figure 6. […] (a) Representative images of Masson’s trichrome staining of AngII-induced myocardial fibrosis following treatment with NA-1 and corresponding graphs showing the quantitation for total and perivascular fibrosis in male mice (n=5 male mice in Ctrl and AngII/Veh group, n=4 male mice in AngII/NA-1 group). […]

HCFs = assay: In vitro collagen expression: COL3A1 mRNA in HCFs stimulated with TGF-β1; assay type: cell-based, human
Experimental: HCFs were seeded at a density of 1.5 ×10^5 cells/well in doxycycline-free medium in 12-well plates (Greiner Bio-One, 665180) and incubated overnight. […] Compounds were pre-incubated for 10 min before addition of TGF-β1.
RNA was extracted using Nucleospin RNA XS (Macherey-Nagel, 740902.50) according to the manufacturer’s instructions. For cDNA synthesis, total RNA was added to a mixture containing buffer with random hexamers and reverse transcriptase enzyme (TaqMan reverse transcription reagents, Applied biosystems, N8080234) after which samples were incubated for 10 min at 25 °C, 30 min at 48 °C, and 5 min at 95 °C. RT-qPCR was performed on QuantStudio 3 Real-time PCR system (Applied Biosystems) using Taqman Universal PCR Master Mix (Applied Biosystems, 4304437) and Taqman primers according to the manufacturer’s instructions. Settings were as follows: […] followed by 10 min at 95 °C, 40 cycles (45 cycles for ERBB4) of denaturation at 95 °C for 15 s, and 1 min at 60 °C. All reactions were run in duplicate, and all data were normalized against housekeeping genes glyceraldehyde-3-phosphate dehydrogenase (GAPDH), beta-actin (ACTB), or phosphoglycerate kinase 1 (PGK1). Expression levels were calculated using the comparative cycle method and expressed as fold change (FC) to appropriate controls. The following TaqMan primers were used (Thermo Fisher Scientific): GAPDH (Hs02758991_g1, Mm99999915_g1 and Rn01775763_g1), PGK1 (Hs99999906_m1), ID2 (Hs04187239_m1), BMPR1B (Hs01010965_m1), CACNA2D4 (Hs00297782_m1), DUSP2 (Hs00358879_m1), NR4A1 (Hs00374226_m1), SGK1 (Hs00178612_m1), COL1A1 (Mm00801666_g1), COL3A1 (Hs00943809_m1 and Mm00802305_g1), ERBB4 (Hs00955525_m1 and Rn00572447_m1), ACTB (Mm02619580_g1) and ANP (Mm01255747_g1).

Row | Substance | Survival probability in AngII-treated Erbb4-null mice (Erbb4-null mice; 1000 ng/kg AngII, Erbb4-null mice, individual animals) | mortality in Erbb4-null mice (Erbb4-null mice; AngII dose of 1000 ng/kg/day) [%] | increase of COL3A1 mRNA levels in HCFs (HCFs; TGF-β1 10 ng/mL) [%] | COL3A1 mRNA expression (FC), HCF validation TGFβ (HCFs; TGFβ vs Vehicle, single replicates)
1 | angiotensin II (DRVYIHPF; Angiotensin-2; UniProt P01019 25-32, looked up) [AngII, inducer of hypertrophy in iAMs and of myocardial fibrosis in mice] | 1 and 0 | 80 | – | –
2 | transforming growth factor β1 [TGF-β1, reference compound] | – | – | 36 | 1.323 and 1.4 and 1.364

Reference: publication PMC11724075, “Small-molecule-induced ERBB4 activation to treat heart failure” (Nature Communications, 2025)
